One substance from publication PMC12199146 can be followed below.

The data set addresses T1, Endonuclease V (EcEndoV), wild-type (Escherichia coli) (UniProt P68739).
T1 sequence: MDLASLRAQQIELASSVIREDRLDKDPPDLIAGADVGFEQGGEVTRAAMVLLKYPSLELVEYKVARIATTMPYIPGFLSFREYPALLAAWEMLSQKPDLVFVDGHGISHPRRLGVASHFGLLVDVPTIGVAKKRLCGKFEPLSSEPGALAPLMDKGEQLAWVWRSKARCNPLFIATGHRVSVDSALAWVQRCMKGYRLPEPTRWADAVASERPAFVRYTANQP
The data set is described as follows: EMSA. Conditions: 5 mM Mg2+; pattern similar to A-RNA; one inosine; EMSA: 25 mM sodium phosphate pH 6.5, 50-300 mM NaCl (500 mM in Fig. S17E), 1 mM DTT, 5 mM MgCl2, 30 min on ice, 2 pmol RNA in 10 ul, 12% native gel in TBE at …. For orientation: In EMSA bound probe runs differently from free probe, usually more slowly.

The substance “1I-RNA (single-edited 20-mer dsRNA, one I:U pair)” showed a binding signal (fold KD vs I-RNA) of 2.
